Measurements taken from publication PMC7550751, “Application of Force to a Syndecan-4 Containing Complex With Thy-1–αVβ3 Integrin Accelerates Neurite Retraction” (Frontiers in Molecular Biosciences, 2020).

Columns and labels:
[1] = biological target: T1, Commercially purified human Syndecan (ectodomain)-4-Fc (human, UniProt P31431 19-145); test: zero force, optical tweezers
T1 chain: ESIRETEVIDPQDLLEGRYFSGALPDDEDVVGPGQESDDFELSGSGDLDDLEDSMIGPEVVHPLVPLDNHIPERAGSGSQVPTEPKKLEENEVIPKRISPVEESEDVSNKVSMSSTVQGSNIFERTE

[2] = biological target: T2, Recombinant αVβ3-Fc integrin (UniProt P06756 31-992; P05106 27-718); test: zero force, optical tweezers
T2 chain 1: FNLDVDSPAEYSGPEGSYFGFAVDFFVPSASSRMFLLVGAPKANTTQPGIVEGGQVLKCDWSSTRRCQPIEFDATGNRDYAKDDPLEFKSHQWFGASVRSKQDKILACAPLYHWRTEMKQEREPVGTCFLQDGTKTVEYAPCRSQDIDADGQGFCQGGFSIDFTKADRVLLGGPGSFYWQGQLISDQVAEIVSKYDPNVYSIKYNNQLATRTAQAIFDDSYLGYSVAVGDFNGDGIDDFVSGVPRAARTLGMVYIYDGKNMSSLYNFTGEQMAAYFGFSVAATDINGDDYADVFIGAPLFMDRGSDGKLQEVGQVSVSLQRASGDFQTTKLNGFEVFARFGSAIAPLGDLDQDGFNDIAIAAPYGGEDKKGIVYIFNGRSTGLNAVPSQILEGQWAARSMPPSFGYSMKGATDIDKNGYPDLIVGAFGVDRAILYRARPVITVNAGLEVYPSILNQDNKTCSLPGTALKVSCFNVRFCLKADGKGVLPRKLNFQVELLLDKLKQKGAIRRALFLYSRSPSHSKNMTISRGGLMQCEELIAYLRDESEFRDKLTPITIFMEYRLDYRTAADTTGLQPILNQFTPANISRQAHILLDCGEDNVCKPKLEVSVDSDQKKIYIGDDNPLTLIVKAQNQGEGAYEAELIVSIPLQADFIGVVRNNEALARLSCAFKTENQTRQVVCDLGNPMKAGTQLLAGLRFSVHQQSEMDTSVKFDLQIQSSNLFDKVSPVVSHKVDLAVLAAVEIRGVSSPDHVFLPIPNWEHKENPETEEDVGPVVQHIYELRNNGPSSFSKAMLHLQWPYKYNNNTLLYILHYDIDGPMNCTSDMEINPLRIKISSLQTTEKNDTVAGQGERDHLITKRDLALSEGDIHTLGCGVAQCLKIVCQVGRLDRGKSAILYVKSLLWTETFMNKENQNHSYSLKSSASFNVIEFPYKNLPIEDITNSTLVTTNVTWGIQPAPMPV
T2 chain 2: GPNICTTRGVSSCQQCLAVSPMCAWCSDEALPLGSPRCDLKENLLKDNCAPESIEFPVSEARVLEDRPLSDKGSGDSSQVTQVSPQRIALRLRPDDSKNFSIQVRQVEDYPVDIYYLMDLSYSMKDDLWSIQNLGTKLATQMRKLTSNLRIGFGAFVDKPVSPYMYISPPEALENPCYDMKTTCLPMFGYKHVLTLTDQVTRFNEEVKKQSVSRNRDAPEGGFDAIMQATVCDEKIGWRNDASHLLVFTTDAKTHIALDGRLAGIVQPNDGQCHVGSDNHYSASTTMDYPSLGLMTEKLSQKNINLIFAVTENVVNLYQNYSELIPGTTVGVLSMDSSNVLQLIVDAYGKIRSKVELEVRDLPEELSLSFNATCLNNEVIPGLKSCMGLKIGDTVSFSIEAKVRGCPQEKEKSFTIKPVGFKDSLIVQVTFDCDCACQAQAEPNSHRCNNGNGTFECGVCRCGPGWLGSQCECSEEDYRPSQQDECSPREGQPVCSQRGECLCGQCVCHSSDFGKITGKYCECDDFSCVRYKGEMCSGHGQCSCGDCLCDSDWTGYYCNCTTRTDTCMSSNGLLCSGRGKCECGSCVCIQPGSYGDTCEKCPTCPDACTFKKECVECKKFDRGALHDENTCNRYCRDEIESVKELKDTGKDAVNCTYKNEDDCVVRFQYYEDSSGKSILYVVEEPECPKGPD

[3] = biological target: T1, Commercially purified human Syndecan …; test: zero force, optical tweezers, with TRAIL-R2-Fc control on the bead
[4] = biological target: T2, Recombinant αVβ3-Fc integrin; test: as above
[5] = biological target: T3, αVβ3-Fc + Syndecan-4-Fc (both on one bead) ( | human, UniProt P06756 31-992; P05106 27-718; P31431 19-145); test: zero force, optical tweezers, both αvβ3-Fc and Syndecan-4-Fc on the bead
T3 chain 1: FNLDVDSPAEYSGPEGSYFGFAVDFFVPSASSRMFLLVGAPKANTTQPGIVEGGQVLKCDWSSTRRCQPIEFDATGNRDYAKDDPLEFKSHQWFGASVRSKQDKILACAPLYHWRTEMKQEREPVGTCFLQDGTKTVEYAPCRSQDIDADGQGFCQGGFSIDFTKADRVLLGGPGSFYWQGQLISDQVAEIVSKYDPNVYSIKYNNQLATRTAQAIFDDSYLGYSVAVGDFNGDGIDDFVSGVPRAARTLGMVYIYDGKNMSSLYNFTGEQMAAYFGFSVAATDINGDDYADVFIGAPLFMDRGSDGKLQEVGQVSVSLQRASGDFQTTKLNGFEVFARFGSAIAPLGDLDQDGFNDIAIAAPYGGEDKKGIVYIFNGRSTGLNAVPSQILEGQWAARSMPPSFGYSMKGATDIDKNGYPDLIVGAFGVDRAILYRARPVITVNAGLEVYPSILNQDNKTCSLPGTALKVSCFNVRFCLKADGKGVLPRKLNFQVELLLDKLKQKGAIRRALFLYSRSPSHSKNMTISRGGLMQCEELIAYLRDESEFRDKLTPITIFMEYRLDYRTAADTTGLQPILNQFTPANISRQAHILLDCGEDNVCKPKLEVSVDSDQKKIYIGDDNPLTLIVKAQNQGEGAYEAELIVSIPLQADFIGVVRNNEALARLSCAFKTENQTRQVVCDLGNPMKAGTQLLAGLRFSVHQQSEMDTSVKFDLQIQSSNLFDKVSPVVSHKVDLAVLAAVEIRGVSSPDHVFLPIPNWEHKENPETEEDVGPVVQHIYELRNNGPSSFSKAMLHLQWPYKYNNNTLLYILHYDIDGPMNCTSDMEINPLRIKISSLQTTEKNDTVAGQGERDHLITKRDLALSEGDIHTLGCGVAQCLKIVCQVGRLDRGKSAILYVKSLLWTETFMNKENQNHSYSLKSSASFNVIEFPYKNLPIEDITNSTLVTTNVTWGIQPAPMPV
T3 chain 2: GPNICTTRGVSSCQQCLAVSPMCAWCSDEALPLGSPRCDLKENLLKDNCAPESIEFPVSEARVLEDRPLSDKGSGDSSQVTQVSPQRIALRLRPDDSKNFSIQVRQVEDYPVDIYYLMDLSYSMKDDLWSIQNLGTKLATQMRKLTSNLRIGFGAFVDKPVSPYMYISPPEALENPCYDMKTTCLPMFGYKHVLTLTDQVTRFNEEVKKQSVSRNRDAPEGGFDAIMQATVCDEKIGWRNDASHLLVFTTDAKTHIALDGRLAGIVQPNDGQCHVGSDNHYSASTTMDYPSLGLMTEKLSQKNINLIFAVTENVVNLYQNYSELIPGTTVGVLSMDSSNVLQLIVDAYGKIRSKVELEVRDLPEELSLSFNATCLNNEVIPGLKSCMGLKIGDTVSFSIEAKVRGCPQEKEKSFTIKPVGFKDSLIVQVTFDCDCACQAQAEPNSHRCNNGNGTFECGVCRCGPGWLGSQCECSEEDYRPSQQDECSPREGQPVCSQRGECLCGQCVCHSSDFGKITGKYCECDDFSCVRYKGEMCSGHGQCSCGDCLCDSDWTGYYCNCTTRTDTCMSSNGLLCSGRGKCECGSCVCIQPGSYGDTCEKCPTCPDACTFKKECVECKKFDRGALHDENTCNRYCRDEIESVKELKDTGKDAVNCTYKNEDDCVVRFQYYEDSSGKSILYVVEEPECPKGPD
T3 chain 3: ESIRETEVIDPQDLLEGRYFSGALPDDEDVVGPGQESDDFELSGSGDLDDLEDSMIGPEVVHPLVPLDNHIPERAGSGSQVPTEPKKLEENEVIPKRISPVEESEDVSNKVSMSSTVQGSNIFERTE

B1: Thy-1-Fc wild type (Fc fusion)
chain: QKVTSLTACLVNQNLRLDCRHENNTKDNSIQHEFSLTREKRKHVLSGTLGIPEHTYRSRVTLSNQPYIKVLTLANFTTKDEGDYFCELQVSGANPMSSNKSISVYRDKLVKC
[1]
  koff: 0.32 s⁻¹
[2]
  koff: 0.14 s⁻¹
[3]
  koff: 0.28 s⁻¹
[4]
  koff: 0.15 s⁻¹
[5]
  koff: 0.08 s⁻¹
